We go through three molecules from US20120135931A1.

The test system of data set [1] is s-variegin.
Data set [2] concerns the target human plasma derived thrombin (human), P00734. The data set can be described thus: cell-based or functional assay.

“recombinant α-thrombin (based on human α-thrombin sequence)”: in data set [1], the “cleavage of s-variegin by thrombin at 24° C. (RP-HPLC), extent at 360 min” value is listed as 360 min was needed for ~90% of cleavage.

B1: MH22 (peptide)
peptide: MHKTAPPFDFEAIPEEYLDDES
modifications: not checked
The molecule B1 came in with a percent inhibition of thrombin amidolytic activity at equimolar concentration in data set [2] of 15%.

B2: MH18 (peptide)
peptide: MHKTAPPFDFEAIPEEYL
modifications: not checked
As to B2, the percent inhibition of thrombin amidolytic activity at equimolar concentration in data set [2] was 15%.
